The results in this text go back to the supplement of paper PMC9112550, “Optimization of the antimicrobial peptide Bac7 by deep mutational scanning” (BMC Biology, 2022).

The data set deals with Escherichia coli TOP10. Kind of data set: shrunken log2 fold change of peptide-encoding DNA abundance (4.5 h post-induction vs induction); higher = less antimicrobial activity (less host growth inhibition). The following applies: time post-induction: 4.5 h; library: site-saturation at positions 5, 18, 19, 20.
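Further: peptides expressed intracellularly from a pBAD plasmid library in pooled LB shake-flask culture, induced with 0.3% L-arabinose, DNA abundance read by NGS, three biological replicates, DESeq2 with apeglm shrinkage.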

For the sequence RRIRQRPPRLPRPRPRPGPDPRP, the “shrunken log2 fold change” value is 0.163.
Regarding RRIRMRPPRLPRPRPRPRLFPRP, the “shrunken log2 fold change” value worked out at 0.998.
Next, RRIRMRPPRLPRPRPRPFWIPRP: 0.00154; RRIRIRPPRLPRPRPRPVSDPRP: -0.619; RRIRVRPPRLPRPRPRPCFSPRP: -0.356.
Consider RRIRQRPPRLPRPRPRPRYEPRP, for which the “shrunken log2 fold change” value was -0.349.
Consider RRIRTRPPRLPRPRPRPVNPPRP, for which the “shrunken log2 fold change” value was -0.0713.
The same measure for RRIRLRPPRLPRPRPRPMHNPRP: -0.429; for RRIRDRPPRLPRPRPRPIYTPRP: -0.105.
For RRIRPRPPRLPRPRPRPHAIPRP, the “shrunken log2 fold change” value was -0.217.
In the case of RRIRVRPPRLPRPRPRPDKYPRP, the “shrunken log2 fold change” value was -0.277.
With RRIRYRPPRLPRPRPRPVGFPRP, the “shrunken log2 fold change” value was -0.308.
As for RRIRSRPPRLPRPRPRPYLCPRP, the “shrunken log2 fold change” value was -0.627.
RRIRGRPPRLPRPRPRPTPCPRP: the “shrunken log2 fold change” value is 0.662.
In the case of RRIRDRPPRLPRPRPRPQIFPRP, the “shrunken log2 fold change” value was -0.00965.
Regarding RRIRLRPPRLPRPRPRPDTCPRP, the “shrunken log2 fold change” value is -0.149.
In the case of RRIRKRPPRLPRPRPRPEWEPRP, the “shrunken log2 fold change” value amounted to 0.271.
For the sequence RRIRDRPPRLPRPRPRPSSGPRP, the “shrunken log2 fold change” value is -0.0626.
RRIRTRPPRLPRPRPRPALLPRP: the “shrunken log2 fold change” value stood at 0.226.
Consider RRIRKRPPRLPRPRPRPSEKPRP, for which the “shrunken log2 fold change” value amounted to 0.428.
For RRIRQRPPRLPRPRPRPNLPPRP, the “shrunken log2 fold change” value came to 0.0275.
Turning to RRIRNRPPRLPRPRPRPVPMPRP, the “shrunken log2 fold change” value is -0.0134.
Next, RRIRQRPPRLPRPRPRPLKIPRP: -0.141; RRIRHRPPRLPRPRPRPLRKPRP: 0.0993; RRIRYRPPRLPRPRPRPHVIPRP: -0.448.
Consider RRIRERPPRLPRPRPRPVGDPRP, for which the “shrunken log2 fold change” value was -0.0343.
Next, RRIRMRPPRLPRPRPRPINIPRP: -0.0393; RRIRQRPPRLPRPRPRPILVPRP: -0.0138.
Turning to RRIRLRPPRLPRPRPRPWMHPRP, the “shrunken log2 fold change” value came to 0.0873.
Consider RRIRGRPPRLPRPRPRPTLYPRP, for which the “shrunken log2 fold change” value turned out to be 0.598.
RRIRTRPPRLPRPRPRPDSLPRP: the “shrunken log2 fold change” value is -0.153.
As for RRIRCRPPRLPRPRPRPYEAPRP, the “shrunken log2 fold change” value is -0.511.
Take RRIRVRPPRLPRPRPRPRTPPRP: the “shrunken log2 fold change” value turned out to be 0.555.
RRIRGRPPRLPRPRPRPTCCPRP: the “shrunken log2 fold change” value amounted to 1.2.
For the sequence RRIRIRPPRLPRPRPRPGREPRP, the “shrunken log2 fold change” value stood at 0.311.
RRIRQRPPRLPRPRPRPSMNPRP: the “shrunken log2 fold change” value was -0.568.
Take RRIRSRPPRLPRPRPRPYCNPRP: the “shrunken log2 fold change” value is -0.709.
Regarding RRIRARPPRLPRPRPRPLGFPRP, the “shrunken log2 fold change” value came to 0.644.
As to RRIRQRPPRLPRPRPRPAIIPRP, the “shrunken log2 fold change” value was -0.0528.
For the sequence RRIRGRPPRLPRPRPRPILIPRP, the “shrunken log2 fold change” value came to 0.191.
Consider RRIRGRPPRLPRPRPRPSYLPRP, for which the “shrunken log2 fold change” value is -0.479.
As for RRIRCRPPRLPRPRPRPYGKPRP, the “shrunken log2 fold change” value was -0.307.
On to RRIRWRPPRLPRPRPRPIFPPRP, for which the “shrunken log2 fold change” value came out at 0.13.
Turning to RRIRRRPPRLPRPRPRPSPVPRP, the “shrunken log2 fold change” value turned out to be 0.379.
Consider RRIRDRPPRLPRPRPRPGIMPRP, for which the “shrunken log2 fold change” value was found to be 0.0786.
For RRIRPRPPRLPRPRPRPRVDPRP, the “shrunken log2 fold change” value came out at 0.263.
In the case of RRIRRRPPRLPRPRPRPSMIPRP, the “shrunken log2 fold change” value was -0.114.
Regarding RRIRQRPPRLPRPRPRPDHRPRP, the “shrunken log2 fold change” value was found to be 0.083.
Regarding RRIRIRPPRLPRPRPRPSNKPRP, the “shrunken log2 fold change” value is -1.01.
As to RRIRPRPPRLPRPRPRPMDQPRP, the “shrunken log2 fold change” value is -0.113.
On to RRIRYRPPRLPRPRPRPSFRPRP, for which the “shrunken log2 fold change” value was -0.59.
Consider RRIRHRPPRLPRPRPRPQHLPRP, for which the “shrunken log2 fold change” value is -0.358.
Turning to RRIRGRPPRLPRPRPRPFTDPRP, the “shrunken log2 fold change” value was determined as 0.143.
For RRIRGRPPRLPRPRPRPKSEPRP, the “shrunken log2 fold change” value is 0.9.
For the sequence RRIRLRPPRLPRPRPRPRLHPRP, the “shrunken log2 fold change” value was -0.237.
For the sequence RRIRWRPPRLPRPRPRPTWQPRP, the “shrunken log2 fold change” value came to 0.125.
With RRIRVRPPRLPRPRPRPPCAPRP, the “shrunken log2 fold change” value was found to be 0.238.
RRIRCRPPRLPRPRPRPMGVPRP: the “shrunken log2 fold change” value was -0.152.
The same measure for RRIRTRPPRLPRPRPRPRWSPRP: 0.0798; for RRIRQRPPRLPRPRPRPYATPRP: -0.326.
Consider RRIRIRPPRLPRPRPRPVTWPRP, for which the “shrunken log2 fold change” value is -0.372.
Turning to RRIRERPPRLPRPRPRPHWFPRP, the “shrunken log2 fold change” value is -0.128.
As for RRIRDRPPRLPRPRPRPVYDPRP, the “shrunken log2 fold change” value is -0.434.
Regarding RRIRLRPPRLPRPRPRPRQHPRP, the “shrunken log2 fold change” value was -0.0111.
The same measure for RRIRWRPPRLPRPRPRPDRRPRP: -0.0279; for RRIRNRPPRLPRPRPRPPAEPRP: 0.256; for RRIRERPPRLPRPRPRPEYQPRP: 0.00497.
With RRIRVRPPRLPRPRPRPLLVPRP, the “shrunken log2 fold change” value is -0.101.
Regarding RRIRERPPRLPRPRPRPMRGPRP, the “shrunken log2 fold change” value stood at 1.19.
The same measure for RRIRTRPPRLPRPRPRPQKCPRP: -0.0262; for RRIRTRPPRLPRPRPRPMFLPRP: -0.593.
As to RRIRWRPPRLPRPRPRPMFWPRP, the “shrunken log2 fold change” value worked out at 0.324.
Regarding RRIRCRPPRLPRPRPRPTMWPRP, the “shrunken log2 fold change” value amounted to 0.259.
On to RRIRDRPPRLPRPRPRPCSFPRP, for which the “shrunken log2 fold change” value was -0.0466.
As to RRIRNRPPRLPRPRPRPELWPRP, the “shrunken log2 fold change” value stood at 0.604.
Turning to RRIRIRPPRLPRPRPRPQIDPRP, the “shrunken log2 fold change” value is -2.56.
The same measure for RRIRARPPRLPRPRPRPTTWPRP: 0.423; for RRIRERPPRLPRPRPRPQRVPRP: -0.167.
As for RRIRQRPPRLPRPRPRPRWRPRP, the “shrunken log2 fold change” value is 0.557.
Consider RRIRYRPPRLPRPRPRPAQIPRP, for which the “shrunken log2 fold change” value was -0.347.
Turning to RRIRHRPPRLPRPRPRPHLGPRP, the “shrunken log2 fold change” value worked out at 0.0478.
As for RRIRVRPPRLPRPRPRPQHYPRP, the “shrunken log2 fold change” value was -0.718.
Take RRIRHRPPRLPRPRPRPMYCPRP: the “shrunken log2 fold change” value is -0.125.
Regarding RRIRNRPPRLPRPRPRPYFNPRP, the “shrunken log2 fold change” value is -1.51.
The same measure for RRIRTRPPRLPRPRPRPGMEPRP: 0.013; for RRIRNRPPRLPRPRPRPQPAPRP: 0.0618; for RRIRGRPPRLPRPRPRPFNWPRP: 0.153.
As for RRIRPRPPRLPRPRPRPEWNPRP, the “shrunken log2 fold change” value was 0.07.
Next, RRIRKRPPRLPRPRPRPCDFPRP: -0.231.
Consider RRIRGRPPRLPRPRPRPWAEPRP, for which the “shrunken log2 fold change” value came to 2.19.
Turning to RRIRYRPPRLPRPRPRPQTVPRP, the “shrunken log2 fold change” value was -0.261.
